Laboratory results from PMC10397247.
Read-outs that look alike come from different tables or passages of the source.

T1: 4H3613-bN
T1 chain: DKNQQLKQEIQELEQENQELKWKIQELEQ

T2: 4H850-bN
T2 chain: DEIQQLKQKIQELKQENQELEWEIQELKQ

T3: 4H3628-bN
T3 chain: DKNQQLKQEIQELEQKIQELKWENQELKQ

T4: 4H3974-bN
T4 chain: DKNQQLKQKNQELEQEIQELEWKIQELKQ

T5: 4H591-bN
T5 chain: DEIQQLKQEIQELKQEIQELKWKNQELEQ

T6: 4H3926-bN
T6 chain: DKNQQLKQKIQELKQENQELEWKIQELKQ

T7: 4H3858-bN
T7 chain: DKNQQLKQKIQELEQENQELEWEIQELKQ

T8: 4H3817-bN
T8 chain: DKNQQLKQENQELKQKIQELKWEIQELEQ

T9: 4H906-bN
T9 chain: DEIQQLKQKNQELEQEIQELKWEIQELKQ

T10: 4H570-bN
T10 chain: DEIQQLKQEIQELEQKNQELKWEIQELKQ

T11: 4H626-bN
T11 chain: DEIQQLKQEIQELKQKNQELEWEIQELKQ

T12: P11-AA
T12 chain: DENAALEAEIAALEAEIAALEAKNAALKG

T13: zCON9_B
T13 chain: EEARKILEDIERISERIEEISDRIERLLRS

T14: P7-AA
T14 chain: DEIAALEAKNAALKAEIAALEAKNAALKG

T15: P3-AA
T15 chain: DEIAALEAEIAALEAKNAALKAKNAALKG

T16: P12-AA
T16 chain: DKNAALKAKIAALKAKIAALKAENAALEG

T17: zCON9_A
T17 chain: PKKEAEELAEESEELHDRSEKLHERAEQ

T18: P9-AA
T18 chain: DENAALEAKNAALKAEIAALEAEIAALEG

T19: P2-AA
T19 chain: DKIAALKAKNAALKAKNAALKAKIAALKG

T20: P4-AA
T20 chain: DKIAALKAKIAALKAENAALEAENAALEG

T21: zCON9_D
T21 chain: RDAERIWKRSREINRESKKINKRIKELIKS

T22: P8-AA
T22 chain: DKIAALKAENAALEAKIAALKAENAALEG

T23: P10-AA
T23 chain: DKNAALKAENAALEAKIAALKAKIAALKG


Legend:
4H3613-bN = target: T1, 4H3613-bN; experiment: two-hybrid library CCNG1;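 note: natural log of median RNA to DNA barcode read ratio; higher means stronger binding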
4H850-bN = target: T2, 4H850-bN; experiment: two-hybrid library CCNG1;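 note: natural log of median RNA to DNA barcode read ratio; higher means stronger binding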
4H3628-bN = target: T3, 4H3628-bN; experiment: two-hybrid library CCNG1;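 note: natural log of median RNA to DNA barcode read ratio; higher means stronger binding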
4H3974-bN = target: T4, 4H3974-bN; experiment: two-hybrid library CCNG1;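 note: natural log of median RNA to DNA barcode read ratio; higher means stronger binding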
4H591-bN = target: T5, 4H591-bN; experiment: two-hybrid library CCNG1;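 note: natural log of median RNA to DNA barcode read ratio; higher means stronger binding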
4H3926-bN = target: T6, 4H3926-bN; experiment: two-hybrid library CCNG1;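 note: natural log of median RNA to DNA barcode read ratio; higher means stronger binding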
4H3858-bN = target: T7, 4H3858-bN; experiment: two-hybrid library CCNG1
4H3817-bN = target: T8, 4H3817-bN; experiment: two-hybrid library CCNG1
4H906-bN = target: T9, 4H906-bN; experiment: two-hybrid library CCNG1
4H570-bN = target: T10, 4H570-bN; experiment: two-hybrid library CCNG1
4H626-bN = target: T11, 4H626-bN; experiment: two-hybrid library CCNG1
P11-AA = target: T12, P11-AA; experiment: two-hybrid library CCmax
zCON9_B = target: T13, zCON9_B; experiment: two-hybrid library CCmax; settings: mean of both orientations
P7-AA = target: T14, P7-AA; experiment: two-hybrid library CCmax; settings: mean of both orientations
P3-AA = target: T15, P3-AA; experiment: two-hybrid library CCmax; settings: mean of both orientations
P12-AA = target: T16, P12-AA; experiment: two-hybrid library CCmax; settings: mean of both orientations
zCON9_A = target: T17, zCON9_A; experiment: two-hybrid library CCmax
P9-AA = target: T18, P9-AA; experiment: two-hybrid library CCmax; settings: mean of both orientations
P2-AA = target: T19, P2-AA; experiment: two-hybrid library CCmax; settings: mean of both orientations
P4-AA = target: T20, P4-AA; experiment: two-hybrid library CCmax; settings: mean of both orientations
zCON9_D = target: T21, zCON9_D; experiment: two-hybrid library CCmax
P8-AA = target: T22, P8-AA; experiment: two-hybrid library CCmax; settings: mean of both orientations
P10-AA = target: T23, P10-AA; experiment: two-hybrid library CCmax

Row | Binder | interaction score (zCON9_B) | interaction score (P7-AA) | interaction score (P3-AA) | interaction score (P12-AA) | interaction score (P9-AA) | interaction score (P2-AA) | interaction score (P4-AA) | interaction score (zCON9_D) | interaction score (P8-AA) | also measured
1 | DKNQQLKQEIQELEQENQELKWKIQELEQ [4H3613-bN] |  |  |  |  |  |  |  |  |  | interaction score (4H3613-bN): -0.839; interaction score (4H850-bN): -0.0632; interaction score (4H3628-bN): -1.69; interaction score (4H3974-bN): -1.53; interaction score (4H591-bN): -0.893; interaction score (4H3926-bN): 0.45; interaction score (4H3858-bN): -0.655; interaction score (4H3817-bN): -0.783; interaction score (4H906-bN): -1.78; interaction score (4H570-bN): -0.737; interaction score (4H626-bN): -1.98
2 | DENAALEAEIAALEAEIAALEAKNAALKG [P11-AA] | -0.891 | -1.07 | -1.5 | 1.97 | -1.18 | 0.243 | 1.68 | -1.93 | -1.23 | interaction score (P11-AA): -1.19; interaction score (zCON9_A): -1.48
3 | DKNAALKAENAALEAKIAALKAKIAALKG [P10-AA] | -0.0248 | -0.0691 | -0.118 | -1.23 | 2.32 | -1.38 | -1.35 | -1.97 | -1.28 | interaction score (P11-AA; mean of both orientations): 1.43; interaction score (zCON9_A; mean of both orientations): -1.58; interaction score (P10-AA): -0.869
